Positions of bridges follow the written chain, without caps; N, C: chain ends. No end group written: not given here.
T1: hu-IL-2Rβ subunit (human, UniProt P14784 27-240, limits assumed)
T1 construct: also called human interleukin-2 receptor subunit β; CD122
T1 sequence (looked up): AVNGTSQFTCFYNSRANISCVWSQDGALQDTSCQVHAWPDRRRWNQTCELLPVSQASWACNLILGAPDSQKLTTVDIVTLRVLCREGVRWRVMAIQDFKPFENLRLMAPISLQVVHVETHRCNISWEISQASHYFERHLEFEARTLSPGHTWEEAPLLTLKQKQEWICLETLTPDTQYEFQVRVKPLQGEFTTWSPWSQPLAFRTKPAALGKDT

B1: SEQ ID NO 355 (peptide)
peptide: YWCWFARVGELCDLDDGGVPS
B2: SEQ ID NO 390 (peptide)
peptide: WYPCSIASLGELCDLE
B3: SEQ ID NO 356 (peptide)
peptide: WYSCWIAQIGELCDLE
B4: SEQ ID NO 381 (peptide)
peptide: QGTKWHWNPCWMAQLGELCDLD
B5: SEQ ID NO 377 (peptide)
peptide: RVSYPCWLARLGELCDMDLEE
B6: SEQ ID NO 412 (peptide)
peptide: FRVSRDWFPCWMAQLGEVCDLE
modifications: disulfide 10-19 (inferred)
B7: SEQ ID NO 363 (peptide)
peptide: RPSWAPCWLAQVGELCDLDHPE
modifications: disulfide 7-16 (inferred)
B8: SEQ ID NO 400 (peptide)
peptide: LGSKRQWYPCWVAHLGELCDLE
B9: SEQ ID NO 396 (peptide)
peptide: WYPCWLAQLGELCDAE
B10: SEQ ID NO 354 (peptide)
peptide: RRWLPCWMAHVGELCDLELGN
B11: SEQ ID NO 416 (peptide)
peptide: WYPCWLAHLGELCDLDWKGRND
B12: SEQ ID NO 374 (peptide)
peptide: YAEWYPCWMARVGEVCDLEVTP
B13: SEQ ID NO 386 (peptide)
peptide: LFPCWLAQLGELCDLE
B14: SEQ ID NO 391 (peptide)
peptide: WLPCYMAQLGDLCDLE
B15: SEQ ID NO 99 (peptide)
peptide: RKHFYPCWMAQLGELCDLEGMP
B16: SEQ ID NO 366 (peptide)
peptide: WHPCWLARVGDLCDLD
B17: SEQ ID NO 101 (peptide)
peptide: DSDWWPCWMAQLGELCDLEDAR
B18: SEQ ID NO 401 (peptide)
peptide: ESEGRGWYPCWNALLGELCDLE
modifications: disulfide 10-19 (inferred)
B19: SEQ ID NO 360 (peptide)
peptide: EQRNRQWWPCWLARLGDLCDLD
B20: SEQ ID NO 103 (peptide)
peptide: WWPCWMAQLGEMCDLEYPYVPG
B21: SEQ ID NO 358 (peptide)
peptide: HGGVIGWYPCWMAKVGELCDLD
modifications: disulfide 10-19 (inferred)
B22: SEQ ID NO 394 (peptide)
peptide: WWPCSIARLGQLCDLD
B23: SEQ ID NO 379 (peptide)
peptide: WLPCWMADVGDLCDLD
B24: SEQ ID NO 393 (peptide)
peptide: WYPCWLASLGEVCDLE
B25: SEQ ID NO 404 (peptide)
peptide: LSSKGWYPCWKARLGDLCDLE
modifications: disulfide 9-18 (inferred)
B26: SEQ ID NO 373 (peptide)
peptide: SATWYPCFLANLGELCDLEQEN
B27: SEQ ID NO 100 (peptide)
peptide: DIGYYPCWMAQVGDLCDLDDEK
B28: SEQ ID NO 372 (peptide)
peptide: RDIWWPCWVAQLGELCDLDDPQ
B29: SEQ ID NO 397 (peptide)
peptide: WKPCWMALLGELCDLE
B30: SEQ ID NO 403 (peptide)
peptide: LHAGRWNPCWLAQLGELCDLE
B31: SEQ ID NO 97 (peptide)
peptide: EGVFFPCWIARLGELCDLDHGL
B32: SEQ ID NO 407 (peptide)
peptide: NVTYTQWFPCWLARLGELCDLV
B33: SEQ ID NO 362 (peptide)
peptide: WLPCWMAHLGDLCDLE
B34: SEQ ID NO 383 (peptide)
peptide: SGTGPAWYPCFLASLGQLCDLE
B35: SEQ ID NO 380 (peptide)
peptide: WHPCWMARLGELCDLD
B36: SEQ ID NO 382 (peptide)
peptide: KNGPKSWYPCWMAQVGDLCDLD
B37: SEQ ID NO 385 (peptide)
peptide: WLPCWRAQLGQLCDLD
B38: SEQ ID NO 375 (peptide)
peptide: RSGDKAFFPCWLAQLGDLCDLD
B39: SEQ ID NO 398 (peptide)
peptide: RYPCWRAKLGELCDLD
B40: SEQ ID NO 378 (peptide)
peptide: TESWYPCWLANLGDLCDLEWSA
B41: SEQ ID NO 410 (peptide)
peptide: ARGEYRWFPCWMARLGELCDLE
B42: SEQ ID NO 368 (peptide)
peptide: RQVPKQWYPCWMAALGELCDLE
B43: SEQ ID NO 371 (peptide)
peptide: WYPCWMAQLGELCDLDEAPVQP
B44: SEQ ID NO 357 (peptide)
peptide: MNPVGTFYPCWIAKLGELCDLQ
B45: SEQ ID NO 80 (peptide)
peptide: WLPCWIARLGDLCDLE
B46: SEQ ID NO 365 (peptide)
peptide: RSLRESWFPCWMAKLGDLCDLE
B47: SEQ ID NO 406 (peptide)
peptide: MTDRAFWNPCWVARLGELCDLD
B48: SEQ ID NO 370 (peptide)
peptide: QVMRLWYPCWMAQLGELCDLE
B49: SEQ ID NO 415 (peptide)
peptide: WYPCWIAKLGEVCDLDQGTTRQ
B50: SEQ ID NO 418 (peptide)
peptide: WSPCWMASLGDLCDLEETRQTE
B51: SEQ ID NO 411 (peptide)
peptide: YLERSRWYPCFIAQLGELCDLE
B52: SEQ ID NO 405 (peptide)
peptide: DMFTHRWYPCSMAKLGELCDLE
B53: SEQ ID NO 98 (peptide)
peptide: TGRWKPCWMAGLHELCDLEGFR
B54: SEQ ID NO 364 (peptide)
peptide: ESKEPAFWPCWMAQLGDLCDLE
B55: SEQ ID NO 402 (peptide)
peptide: RWTQAQWYPCWLAQLGELCDLE
B56: SEQ ID NO 399 (peptide)
peptide: EEQSRGFLPCWMALLGELCDLD
B57: SEQ ID NO 389 (peptide)
peptide: MYPCWIAHLGELCDLD
B58: SEQ ID NO 359 (peptide)
peptide: WYPCSIALLGELCDLESVHEKS
modifications: disulfide 4-13 (inferred)
B59: SEQ ID NO 408 (peptide)
peptide: VRTRIWYPCWSAQLGELCDLD
B60: SEQ ID NO 413 (peptide)
peptide: IERAWEWRPCWLASVGELCDLE
B61: SEQ ID NO 409 (peptide)
peptide: AMARRYLPCWIAKLGELCELD
modifications: disulfide 9-18 (inferred)
B62: SEQ ID NO 353 (peptide)
peptide: SHLWFPCWMAQLGELCDLEGGP
B63: SEQ ID NO 367 (peptide)
peptide: SRSAGEYYPCWLAQLGELCDLA
B64: SEQ ID NO 414 (peptide)
peptide: VASERFYPCWIARLGELCDVE
modifications: disulfide 9-18 (inferred)
B65: SEQ ID NO 417 (peptide)
peptide: WYPCWRAQLGELCDLVDLGSHL
modifications: disulfide 4-13 (inferred)
B66: SEQ ID NO 102 (peptide)
peptide: GERWKPCWIAQLGELCDLDFNW

These binders were tested against T1, hu-IL-2Rβ subunit (assay: phage ELISA competition assay).

**Q.** For B1, which IC50 is on record?
**A.** < 100 µM

**Q.** How did the IC50 turn out when B2 was run?
**A.** < 100 µM

**Q.** With B3 as the binder, how does the IC50 read?
**A.** < 100 µM

**Q.** For B4, which IC50 is on record?
**A.** < 100 µM

**Q.** For B5, which IC50 is on record?
**A.** < 100 µM

**Q.** B6 was tested. Which IC50 did it give?
**A.** < 100 µM

**Q.** Which IC50 does the source give for B7 here?
**A.** < 100 µM

**Q.** For B8, which IC50 is on record?
**A.** < 100 µM

**Q.** Which IC50 does the source give for B9 here?
**A.** < 100 µM

**Q.** Which IC50 does the source give for B10 here?
**A.** < 100 µM

**Q.** Which IC50 does the source give for B11 here?
**A.** < 100 µM

**Q.** How did the IC50 turn out when B12 was run?
**A.** < 100 µM

**Q.** B13 was tested. Which IC50 did it give?
**A.** < 100 µM

**Q.** Which IC50 does the source give for B14 here?
**A.** < 100 µM

**Q.** With B15 as the binder, how does the IC50 read?
**A.** < 100 µM

**Q.** With B16 as the binder, how does the IC50 read?
**A.** < 100 µM

**Q.** For B17, which IC50 is on record?
**A.** < 100 µM

**Q.** For B18, which IC50 is on record?
**A.** < 100 µM

**Q.** B19 was tested. Which IC50 did it give?
**A.** < 100 µM

**Q.** For B20, which IC50 is on record?
**A.** < 100 µM

**Q.** B21 was tested. Which IC50 did it give?
**A.** < 100 µM

**Q.** With B22 as the binder, how does the IC50 read?
**A.** < 100 µM

**Q.** How did the IC50 turn out when B23 was run?
**A.** < 100 µM

**Q.** With B24 as the binder, how does the IC50 read?
**A.** < 100 µM

**Q.** With B25 as the binder, how does the IC50 read?
**A.** < 100 µM

**Q.** B26 was tested. Which IC50 did it give?
**A.** < 100 µM

**Q.** B27 was tested. Which IC50 did it give?
**A.** < 100 µM

**Q.** Which IC50 does the source give for B28 here?
**A.** < 100 µM

**Q.** How did the IC50 turn out when B29 was run?
**A.** < 100 µM

**Q.** For B30, which IC50 is on record?
**A.** < 100 µM

**Q.** With B31 as the binder, how does the IC50 read?
**A.** < 100 µM

**Q.** How did the IC50 turn out when B32 was run?
**A.** < 100 µM

**Q.** B33 was tested. Which IC50 did it give?
**A.** < 100 µM

**Q.** Which IC50 does the source give for B34 here?
**A.** < 100 µM

**Q.** Which IC50 does the source give for B35 here?
**A.** < 100 µM

**Q.** How did the IC50 turn out when B36 was run?
**A.** < 100 µM

**Q.** B37 was tested. Which IC50 did it give?
**A.** < 100 µM

**Q.** Which IC50 does the source give for B38 here?
**A.** < 100 µM

**Q.** For B39, which IC50 is on record?
**A.** < 100 µM

**Q.** Which IC50 does the source give for B40 here?
**A.** < 100 µM

**Q.** With B41 as the binder, how does the IC50 read?
**A.** < 100 µM

**Q.** B42 was tested. Which IC50 did it give?
**A.** < 100 µM

**Q.** B43 was tested. Which IC50 did it give?
**A.** < 100 µM

**Q.** How did the IC50 turn out when B44 was run?
**A.** < 100 µM

**Q.** How did the IC50 turn out when B45 was run?
**A.** < 100 µM

**Q.** For B46, which IC50 is on record?
**A.** < 100 µM

**Q.** Which IC50 does the source give for B47 here?
**A.** < 100 µM

**Q.** For B48, which IC50 is on record?
**A.** < 100 µM

**Q.** With B49 as the binder, how does the IC50 read?
**A.** < 100 µM

**Q.** How did the IC50 turn out when B50 was run?
**A.** < 100 µM

**Q.** For B51, which IC50 is on record?
**A.** < 100 µM

**Q.** How did the IC50 turn out when B52 was run?
**A.** < 100 µM

**Q.** For B53, which IC50 is on record?
**A.** < 100 µM

**Q.** For B54, which IC50 is on record?
**A.** < 100 µM

**Q.** How did the IC50 turn out when B55 was run?
**A.** < 100 µM

**Q.** With B56 as the binder, how does the IC50 read?
**A.** < 100 µM

**Q.** With B57 as the binder, how does the IC50 read?
**A.** < 100 µM

**Q.** B58 was tested. Which IC50 did it give?
**A.** < 100 µM

**Q.** With B59 as the binder, how does the IC50 read?
**A.** < 100 µM

**Q.** For B60, which IC50 is on record?
**A.** < 100 µM

**Q.** B61 was tested. Which IC50 did it give?
**A.** < 100 µM

**Q.** Which IC50 does the source give for B62 here?
**A.** < 100 µM

**Q.** B63 was tested. Which IC50 did it give?
**A.** < 100 µM

**Q.** How did the IC50 turn out when B64 was run?
**A.** < 100 µM

**Q.** With B65 as the binder, how does the IC50 read?
**A.** < 100 µM

**Q.** For B66, which IC50 is on record?
**A.** < 100 µM

Reference: US20240101959A1, “USE OF IL-2R-BETA-GAMMA AGONIST PEPTIDES IN CELL MANUFACTURING” (MEDIKINE, INC., priority 2022, published 2024)
